In US20230357429A1 (JANUX THERAPEUTICS, published 2023):
Like-named read-outs stand apart in the source and are kept apart here. Blank lines part the entries; values can stand above or below the binder they belong to. Where no end group is shown, it is not given here.

Legend:
TBD-1 wt = target: T1, TBD-1 wt; assay: competition ELISA: peptide titrated and pre-incubated with a constant concentration of TBD-1, then added to plate-bound biotinylated TROP2; blocked ligand TROP2 (2.m7)
T1 construct: Fab; the heavy chain entry is VH-CH1; also called wild-type anti-TROP2 Fab (hRS7); TROP2 Fab

[1] = target: T2, Human TROP2 ECD (31-274 AA), biotinylated (human, UniProt P09758 31-274, biotinylated (site not stated)); assay: ELISA on immobilized TROP2
T2 construct: also called tumor-associated calcium signal transducer 2; Human TROP2-biotin
T2 sequence: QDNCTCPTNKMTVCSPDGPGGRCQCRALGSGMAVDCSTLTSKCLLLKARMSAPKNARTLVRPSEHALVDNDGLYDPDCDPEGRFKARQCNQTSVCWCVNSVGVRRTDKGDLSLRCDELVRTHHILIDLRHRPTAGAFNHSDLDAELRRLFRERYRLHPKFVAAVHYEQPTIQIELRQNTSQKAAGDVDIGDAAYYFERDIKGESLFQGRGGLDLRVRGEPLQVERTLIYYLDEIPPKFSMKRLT

Human TROP2 Full length = target: T3, Human TROP2 Full length (human, UniProt P09758 31-323); assay: cell-based or functional assay
T3 sequence: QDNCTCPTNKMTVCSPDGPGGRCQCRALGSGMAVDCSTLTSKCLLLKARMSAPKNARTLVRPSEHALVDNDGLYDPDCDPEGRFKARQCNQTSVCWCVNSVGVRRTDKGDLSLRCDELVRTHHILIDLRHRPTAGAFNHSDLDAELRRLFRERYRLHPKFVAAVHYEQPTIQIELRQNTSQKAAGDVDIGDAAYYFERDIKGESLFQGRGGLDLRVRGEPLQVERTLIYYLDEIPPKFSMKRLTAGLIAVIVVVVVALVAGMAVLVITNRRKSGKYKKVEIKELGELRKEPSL

Peptide-77 = target: T4, Peptide-77 (cysteine pairing not given here; also: biotinylated, site not given here); assay: ELISA, TCE on captured biotin-peptide
T4 construct: mask peptide for the CD3 scFv
T4 peptide: YLCGPDTDETLACY

Peptide-70 = target: T5, Peptide-70 (cysteine pairing not given here; also: biotinylated, site not given here); assay: ELISA, TCE on captured biotin-peptide
T5 construct: mask peptide for the CD3 scFv
T5 peptide: YLCGPDGDETLACY

Peptide-76 = target: T6, Peptide-76 (cysteine pairing not given here; also: biotinylated, site not given here); assay: ELISA, TCE on captured biotin-peptide
T6 construct: mask peptide for the CD3 scFv
T6 peptide: YLCGPDADETLACY

[2] = target: T2, Human TROP2 ECD (31-274 AA), …; assay: ELISA on immobilized TROP2; remark: listed apart in the source

B2: PC-7 (bispecific antibody)
light: not shown
heavy: GGVDFCGLYHWPICYQGGGGSGGLSGRSDAGSPLGLAGSGGSQVQLQQSGSELKKPGASVKVSCKASGYTFTNYGMNWVKQAPGQGLKWMGWINTYTGEPTYTDDFKGRFAFSLDTSVSTAYLQISSLKADDTAVYFCARGGFGSSYWYFDVWGQGSLVTVSSASTKGPSVFPLAPSSKSTSGGTAALGCLVKDYFPEPVTVSWNSGALTSGVHTFPAVLQSSGLYSLSSVVTVPSSSLGTQTYICNVNHKPSNTKVDKKVEPKSC
notes: anti-TROP2 wt
EC50 [1]: 24.6 nM

B3: TCE-2 (bispecific antibody)
light: not shown
heavy: QVQLQQSGSELKKPGASVKVSCKASGYTFTNYGMNWVKQAPGQGLKWMGWINTYTGEPTYTDDFKGRFAFSLDTSVSTAYLQISSLKADDTAVYFCARGGFGSSYWYFDVWGQGSLVTVSSASTKGPSVFPLAPSSKSTSGGTAALGCLVKDYFPEPVTVSWNSGALTSGVHTFPAVLQSSGLYSLSSVVTVPSSSLGTQTYICNVNHKPSNTKVDKKVEPKSC
EC50 [1]: 0.13 nM

B4: Peptide-16 (peptide)
peptide: IDFCLLYDWPVCAS
IC50 (read off the curve) (TBD-1 wt): ~3000 nM

B8: TCE-39 (bispecific antibody)
light: DIQLTQSPSSLSASVGDRVSITCKASQDVSIAVAWYQQKPGKAPKLLIYSASYRYTGVPDRFSGSGSGTDFTLTISSLQPEDFAVYYCQQHYITPLTFGAGTKVEIKRTVAAPSVFIFPPSDEQLKSGTASVVCLLNNFYPREAKVQWKVDNALQSGNSQESVTEQDSKDSTYSLSSTLTLSKADYEKHKVYACEVTHQGLSSPVTKSFNRGEC
heavy: EVQLVESGGGLVQPGGSLKLSCAASGFTFNKYAMNWVRQASGKGLEWVGRIRSKYNNYATYYADSVKDRFTISRDDSKNTAYLQMNSLKTEDTAVYYCVRHGNFGNSYISYWAYWGQGTLVTVSSGGGGSGGGGSGGGGSQTVVTQEPSFSVSPGGTVTLTCRSSTGAVTSGNYANWVQQTPGQAPRGLIGGTKFLAPGVPDRFSGSILGNKAALTITGAQADDESDYYCVLWYSNRWVFGGGTKLTVLGGGGSQVQLQQSGSELKKPGASVKVSCKASGYTFTNYGMNWVKQAPGQGLKWMGWINTYTGEPTYTDDFKGRFAFSLDTSVSTAYLQISSLKADDTAVYFCARGGFGSSYWYADVWGQGSLVTVSSASTKGPSVFPLAPSSKSTSGGTAALGCLVKDYFPEPVTVSWNSGALTSGVHTFPAVLQSSGLYSLSSVVTVPSSSLGTQTYICNVNHKPSNTKVDKKVEPKSC
HCT116 Cytotoxicity EC50 (pM) (Human TROP2 Full length): 73.2 pM

B9: TCE-49 (bispecific antibody)
light: DIQLTQSPSSLSASVGDRVSITCKASQDVSIAVAWYQQKPGKAPKLLIYSASYRYTGVPDRFSGSGSGTDFTLTISSLQPEDFAVYYCQQHYITPLTFGAGTKVEIKRTVAAPSVFIFPPSDEQLKSGTASVVCLLNNFYPREAKVQWKVDNALQSGNSQESVTEQDSKDSTYSLSSTLTLSKADYEKHKVYACEVTHQGLSSPVTKSFNRGEC
heavy: not shown
H292 Cytotoxicity EC50 (pM) (Human TROP2 Full length): 3.9 pM

B12: PC-6 (bispecific antibody)
light: GGVDFCGLYHWPICYQGGGGSGGLSGRSDAGSPLGLAGSGGSDIQLTQSPSSLSASVGDRVSITCKASQDVSIAVAWYQQKPGKAPKLLIYSASYRYTGVPDRFSGSGSGTDFTLTISSLQPEDFAVYYCQQHYITPLTFGAGTKVEIKRTVAAPSVFIFPPSDEQLKSGTASVVCLLNNFYPREAKVQWKVDNALQSGNSQESVTEQDSKDSTYSLSSTLTLSKADYEKHKVYACEVTHQGLSSPVTKSFNRGEC
heavy: not shown
notes: anti-TROP2 wt
EC50 [1]: 32.9 nM
EC50 [2]: 16.6 nM

B13: PC-28 (bispecific antibody)
light: GGIDFCMLYNWPICAGGGGGSGGLSGRSDAGSPLGLAGSGGSDIQLTQSPSSLSASVGDRVSITCKASQDVSIAVAWYQQKPGKAPKLLIYSASYRYTGVPDRFSGSGSGTDFTLTISSLQPEDFAVYYCQQHYITPLTFGAGTKVEIKRTVAAPSVFIFPPSDEQLKSGTASVVCLLNNFYPREAKVQWKVDNALQSGNSQESVTEQDSKDSTYSLSSTLTLSKADYEKHKVYACEVTHQGLSSPVTKSFNRGEC
heavy: not shown
notes: anti-TROP2 wt
EC50 [2]: 25 nM

B14: PC-29 (bispecific antibody)
light: GGVDFCGLYHWPICYQGGGGSGGLSGRSDAGSPLGLAGSGGSDIQLTQSPSSLSASVGDRVSITCKASQDVSIAVAWYQQKPGKAPKLLIYSASYRYTGVPDRFSGSGSGTDFTLTISSLQPEDFAVYYCQQHYITPLTFGAGTKVEIKRTVAAPSVFIFPPSDEQLKSGTASVVCLLNNFYPREAKVQWKVDNALQSGNSQESVTEQDSKDSTYSLSSTLTLSKADYEKHKVYACEVTHQGLSSPVTKSFNRGEC
heavy: not shown
notes: anti-TROP2 wt
EC50 [2]: 16.3 nM

B15: PC-5 (bispecific antibody)
light: GGIDFCMLYNWPICAGGGGGSGGLSGRSDAGSPLGLAGSGGSDIQLTQSPSSLSASVGDRVSITCKASQDVSIAVAWYQQKPGKAPKLLIYSASYRYTGVPDRFSGSGSGTDFTLTISSLQPEDFAVYYCQQHYITPLTFGAGTKVEIKRTVAAPSVFIFPPSDEQLKSGTASVVCLLNNFYPREAKVQWKVDNALQSGNSQESVTEQDSKDSTYSLSSTLTLSKADYEKHKVYACEVTHQGLSSPVTKSFNRGEC
heavy: not shown
notes: anti-TROP2 wt
EC50 [1]: 24.5 nM
EC50 [2]: 9.15 nM

Results, then the binder that gave them:

binding result (TBD-1 wt): binds
B1: Peptide-19 (peptide)
peptide: PDFCQLYNWPVCAG

binding result (TBD-1 wt): binds
B5: Peptide-23 (peptide)
peptide: VDFCYQYGWPICSR

binding result (TBD-1 wt): binds
B6: Peptide-22 (peptide)
peptide: VDFCTIYKWPVCEG

binding result (TBD-1 wt): binds
B7: Peptide-21 (peptide)
peptide: IDFCSLYQWPVCGT

EC50 (Peptide-77): 63.2 nM
EC50 (Peptide-70): 0.4 nM
EC50 (Peptide-76): 4.56 nM
B10: TCE-7 (anti-CD3 scFv wt; anti-TROP2 F108A) (bispecific antibody)
light: DIQLTQSPSSLSASVGDRVSITCKASQDVSIAVAWYQQKPGKAPKLLIYSASYRYTGVPDRFSGSGSGTDFTLTISSLQPEDFAVYYCQQHYITPLTFGAGTKVEIKRTVAAPSVFIFPPSDEQLKSGTASVVCLLNNFYPREAKVQWKVDNALQSGNSQESVTEQDSKDSTYSLSSTLTLSKADYEKHKVYACEVTHQGLSSPVTKSFNRGEC
heavy: not shown
notes: scFv on the Fab heavy chain

EC50 (Peptide-77): 9.21 nM
EC50 (Peptide-70): 0.34 nM
EC50 (Peptide-76): 1.44 nM
B11: TCE-37 (anti-CD3 scFv F104A; anti-TROP2 F108A) (bispecific antibody)
light: DIQLTQSPSSLSASVGDRVSITCKASQDVSIAVAWYQQKPGKAPKLLIYSASYRYTGVPDRFSGSGSGTDFTLTISSLQPEDFAVYYCQQHYITPLTFGAGTKVEIKRTVAAPSVFIFPPSDEQLKSGTASVVCLLNNFYPREAKVQWKVDNALQSGNSQESVTEQDSKDSTYSLSSTLTLSKADYEKHKVYACEVTHQGLSSPVTKSFNRGEC
heavy: not shown
notes: scFv on the Fab heavy chain
